Measurements as given in US20190359983, “TARGETED OLIGONUCLEOTIDES” (CARIS SCIENCE, INC., published 2019).

What was measured:
[1] = molecular target: T1, Complement C1q (C1qA/C1qB/C1qC) (UniProt P02745;P02746;P02747 P02745:23-245,P02746:28-253,P02747:29-245); test: ELONA; estimated; C1q fixed at 0.625 nM; details: chain copies: 6; label: radiolabel (filter); biotin (pulldown, ELONA)
Description: (§1) To further investigate the interaction of aptamer B1 and B11 with C1q, we performed a filter retention assay. Radioactively labelled B1 and B11 were incubated with increasing concentrations of purified C1q and subsequently passed through a nitrocellulose membrane. The amount of oligonucleotides retained on membrane-immobilized C1q was then quantified by autoradiography. […] Similar results were obtained with B11 and B11rc in an Enzyme-Linked Oligonucleotide Assay (ELONA; see U.S. Pat. No. 5,789,163, which patent is incorporated herein in its entirety). […] As a control, the reverse complement of B11, B11RC, was used (squares).

[2] = molecular target: T1, Complement C1q (C1qA/C1qB/C1qC); test: FP filter; nitrocellulose filter retention; concentration dependent binding; details: chain copies: 6; label: radiolabel (filter); biotin (pulldown)
Description: as §1

T1 sequence (P02745 23-245, chain 1 of 3): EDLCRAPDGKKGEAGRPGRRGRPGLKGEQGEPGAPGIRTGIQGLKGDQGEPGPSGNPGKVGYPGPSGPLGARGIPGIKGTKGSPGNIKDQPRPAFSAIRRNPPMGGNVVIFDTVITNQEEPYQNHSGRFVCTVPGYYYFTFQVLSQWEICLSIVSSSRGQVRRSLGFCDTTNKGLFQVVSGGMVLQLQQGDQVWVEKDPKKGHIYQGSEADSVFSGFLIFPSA
T1 sequence (P02746 28-253, chain 2 of 3): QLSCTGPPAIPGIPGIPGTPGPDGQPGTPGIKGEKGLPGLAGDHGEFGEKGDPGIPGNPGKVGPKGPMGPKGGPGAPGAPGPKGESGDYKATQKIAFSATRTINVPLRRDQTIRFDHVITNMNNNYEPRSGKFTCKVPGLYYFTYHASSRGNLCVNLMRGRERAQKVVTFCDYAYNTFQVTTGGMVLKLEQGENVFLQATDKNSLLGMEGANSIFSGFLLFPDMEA
T1 sequence (P02747 29-245, chain 3 of 3): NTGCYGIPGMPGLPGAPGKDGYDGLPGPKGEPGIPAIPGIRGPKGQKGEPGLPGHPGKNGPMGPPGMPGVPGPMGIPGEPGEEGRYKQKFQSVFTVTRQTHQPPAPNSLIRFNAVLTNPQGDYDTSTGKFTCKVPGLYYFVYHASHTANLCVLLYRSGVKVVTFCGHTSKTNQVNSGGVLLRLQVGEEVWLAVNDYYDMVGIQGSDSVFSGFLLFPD

Binder	Kd [1] [nM]	binding result [2]
83S-B11 full (ssDNA) DNA: CTAGCATGACTGCAGTACGTAACCCAATTCACATACACTCTCACCCCCACTAAACACTGTCTCTTATACACATCTGACGCTGCCGACGA	~40	–
83S-B1 full (ssDNA) DNA: CTAGCATGACTGCAGTACGTACTATAGAACAATCCACCGCTTTAAATCAACTATCTTACTGTCTCTTATACACATCTGACGCTGCCGACGA	–	binds
